The values that follow come from article PMC6143741.

What all share (test): MYTH quantitative β-Gal activity assay
Experiment [1] deals with TbMCUc without the mitochondrial targeting signal, MYTH bait or prey. As to conditions: n = 3; 8 colonies for each independent experiment; parent: est. 140; read off a plot.
Experiment [2] has as its target TbMCUd without the mitochondrial targeting signal, MYTH bait or prey. As to conditions: n = 3; 8 colonies for each independent experiment; parent: est. 120; read off a plot.
For another experiment, the target named is TbMCUdΔ3. The conditions noted are these: n = 3; 8 colonies were used in each independent experiment; read off a plot.
The target in another experiment is TbMCUcΔ3. As to conditions: n = 3; 8 colonies were used in each independent experiment; read off a plot.
A further experiment deals with TbMCUcΔ4. As to conditions: n = 3; 8 colonies were used in each independent experiment; read off a plot.
The target in a further experiment is TbMCUcΔ2. The conditions noted are these: n = 3; 8 colonies were used in each independent experiment; read off a plot.
A further experiment addresses TbMCUdΔ4. The conditions noted are these: n = 3; 8 colonies were used in each independent experiment; read off a plot.
A further experiment addresses TbMCUdΔ2. As to conditions: n = 3; 8 colonies were used in each independent experiment; read off a plot.

For “TbMCU without the mitochondrial targeting signal, MYTH bait or prey TMH1 and TMH2 each replaced by WALP (…)”, the response in experiment [1] amounted to 15 units; in experiment [2] it was 12 units.

Regarding “TbMCU without the mitochondrial targeting signal, MYTH bait or prey TMH2 replaced by WALP (…)”, the response in experiment [1] came out at 50 units; in experiment [2], 45 units.

For “TbMCU without the mitochondrial targeting signal, MYTH bait or prey Y235A; F236A; T241E; Y248A”, the response stood at 65 units in experiment [1] and 58 units in experiment [2].

Substance “TbMCUd without the mitochondrial targeting signal, MYTH bait or prey MCUdΔ3: TMH2 replaced by WALP (…), in bait and prey” yielded a response with TbMCUdΔ3 of 52 units.

In turn, “TbMCUc without the mitochondrial targeting signal, MYTH bait or prey MCUcΔ3: TMH2 replaced by WALP (…), in bait and prey” yielded a response with TbMCUcΔ3 of 55 units.

Turning to “TbMCUc without the mitochondrial targeting signal, MYTH bait or prey MCUcΔ4: TMH1 and TMH2 each replaced by WALP (…), in bait and prey”, the response with TbMCUcΔ4 was determined as 20 units.

As to “TbMCU without the mitochondrial targeting signal, MYTH bait or prey Q213A; V216F; I217F; F222A”, the response came out at 100 units in experiment [1] and 88 units in experiment [2].

For the substance “TbMCUc without the mitochondrial targeting signal, MYTH bait or prey MCUcΔ2: TMH1 replaced by WALP (…), in bait and prey”, the response in the experiment with TbMCUcΔ2 came out at 85 units.

“TbMCUd without the mitochondrial targeting signal, MYTH bait or prey MCUdΔ4: TMH1 and TMH2 each replaced by WALP (…), in bait and prey” registered a response in the experiment with TbMCUdΔ4 of 15 units.

Take “TbMCU without the mitochondrial targeting signal, MYTH bait or prey TMH1 replaced by WALP (…)”: the values for the response in experiment [1] and in experiment [2] were 82 units and 78 units, respectively.

On to “TbMCUd without the mitochondrial targeting signal, MYTH bait or prey MCUdΔ2: TMH1 replaced by WALP (…), in bait and prey”, for which the response with TbMCUdΔ2 amounted to 70 units.
